Reference: patent publication US10556936B2, “Immunogenic proteins and fragments thereof from allergenic mites” (ALK-ABELLÓ A/S, priority 2016, dated 2020)

Experiments:
Type in all cases: cell-based, human
[1] = test system: basophils in whole blood from HDM allergic donors; assay: Basophil Activation Test (BAT); conditions: blood from HDM allergic individuals (n=14)
In short: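 Whole blood from HDM-allergic donors (n=14) was stimulated for 1 h with test proteins across a concentration range, e.g. 1, 10, 100 or 1000 ng/ml. Basophil surface activation markers were measured by flow cytometry, with Der p 1 and Der p 2 tested at the same concentrations as controls.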

[2] = test system: T cell lines obtained from HDM allergic individuals and non-allergics; assay: In vitro T cell proliferation test in T cell lines (Example 3); conditions: 0.5 or 2 ug/ml, 72 h; for % responders of in-vitro T cell proliferation test, Allergic: T cell lines from HDM allergic individuals (n=30); for % responders of in-vitro T cell proliferation test, Non-allergics: T cell lines from non-allergics (n=8)
In short: (§1)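 Freshly isolated PBMC (5×10^6/ml) from mite-allergic patients or non-allergics cultured 5 days with test protein up to 10 ug/ml; IFN-gamma, IL-9, IL-10, IL-17, IL-31 in supernatants by multiplex immunoassay. T cell lines, raised 3 weeks on HDM extract, tested at 0.5 or 2 ug/ml protein in 72 h proliferation assay.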

[3] = test system: PBMC cells obtained from mite allergic patients and non-allergics; assay: Ex vivo stimulation of PBMC: cytokine production (IFN-gamma, IL-9, IL-10, IL-17, IL-31)
In short: as §1

| Molecule | # of individuals of 14 with positive BAT test ([1]; 1 ng/ml) | # of individuals of 14 with positive BAT test ([1]; 10 ng/ml) | # of individuals of 14 with positive BAT test ([1]; 100 ng/ml) | # of individuals of 14 with positive BAT test ([1]; 1000 ng/ml) | % responders of in-vitro T cell proliferation test, Allergic [2] | % responders of in-vitro T cell proliferation test, Non-allergics [2] | % HDM allergic individuals with cytokine production in ex-vivo T cell assay IL-5 [3] | % HDM allergic individuals with cytokine production in ex-vivo T cell assay IL-9 [3] | % HDM allergic individuals with cytokine production in ex-vivo T cell assay IL-10 [3] | % HDM allergic individuals with cytokine production in ex-vivo T cell assay IL-13 [3] | % HDM allergic individuals with cytokine production in ex-vivo T cell assay IL-17 [3] | % HDM allergic individuals with cytokine production in ex-vivo T cell assay IL-31 [3] | % HDM allergic individuals with cytokine production in ex-vivo T cell assay INF-g [3] | % non-allergic individuals with cytokine production in ex-vivo T cell assay IL-5 [3] | % non-allergic individuals with cytokine production in ex-vivo T cell assay IL-9 [3] | % non-allergic individuals with cytokine production in ex-vivo T cell assay IL-10 [3] | % non-allergic individuals with cytokine production in ex-vivo T cell assay IL-13 [3] | % non-allergic individuals with cytokine production in ex-vivo T cell assay IL-17 [3] | % non-allergic individuals with cytokine production in ex-vivo T cell assay IL-31 [3] | % non-allergic individuals with cytokine production in ex-vivo T cell assay INF-g [3] |
| --- | --- | --- | --- | --- | --- | --- | --- | --- | --- | --- | --- | --- | --- | --- | --- | --- | --- | --- | --- | --- |
| Derp1: major house dust mite allergen, group 1, Dermatophagoides pteronyssinus; control (protein, UniProt P08176 99-320, looked up) Peptidase 1: TNACSINGNAPAEIDLRQMRTVTPIRMQGGCGSCWAFSGVAATESAYLAYRNQSLDLAEQELVDCASQHGCHGDTIPRGIEYIQHNGVVQESYYRYVAREQSCRRPNAQRFGISNYCQIYPPNVNKIREALAQTHSAIAVIIGIKDLDAFRHYDGRTIIQRDNGYQPNYHAVNIVGYSNAQGVDYWIVRNSWDTNWGDNGYGYFAANIDLMMIEEYPYVVIL | 7 | 10 | 10 | 10 | 73% | 13% | 50% | 6% | 50% | 50% | 6% | 0% | 0% | 0% | 0% | 17% | 0% | 17% | 0% | 0% |
| Derf2: major house dust mite allergen, group 2, Dermatophagoides farinae; control (protein, UniProt Q00855 18-146, looked up) Mite group 2 allergen Der f 2: DQVDVKDCANNEIKKVMVDGCHGSDPCIIHRGKPFTLEALFDANQNTKTAKIEIKASLDGLEIDVPGIDTNACHFMKCPLVKGQQYDIKYTWNVPKIAPKSENVVVTVKLIGDNGVLACAIATHGKIRD | 13 | 13 | 13 | 13 | 67% | 14% | 63% | 50% | 81% | 69% | 13% | 6% | 6% | 0% | 0% | 33% | 0% | 67% | 0% | 17% |
| Derp2: major house dust mite allergen, group 2, Dermatophagoides pteronyssinus; control (protein, UniProt P49278 18-146, looked up) Mite group 2 allergen Der p 2: DQVDVKDCANHEIKKVLVPGCHGSEPCIIHRGKPFQLEAVFEANQNTKTAKIEIKASIDGLEVDVPGIDPNACHYMKCPLVKGQQYDIKYTWNVPKIAPKSENVVVTVKVMGDDGVLACAIATHAKIRD | 13 | 13 | 13 | 13 | 57% | 0% | 56% | 31% | 56% | 50% | 0% | 6% | 0% | 0% | 0% | 17% | 0% | 0% | 0% | 0% |
| A001: house dust mite protein; SEQ ID NO: 13 (Der f), 14 (Der p); recombinant test protein (protein) KKSPDCDIERPIRECLKDGLLRYSSGQKINQFPDTIQDLNRACEELKKSETCARTFIDTCTESSYEKRSLDSLLDGIQRVMKRLCRSQTKKEKLLENVGCANSVVQDTKQCLKNYRMLVFAANKLDNKNKIMRILCCKSRKVAPCIGEAMKAKGTAVCSAKNIDYFKDVHQNIKQEMTAVVCSDFERDQCENVDVPNISESEYKDQNIFNPLRDLYKKVILG | 0 | 0 | 1 | 2 | 17% | 0% | 6% | 0% | 75% | 6% | 25% | 0% | 6% | 0% | 0% | 100% | 0% | 50% | 0% | 0% |
